Assay results from the supplement of paper PMC10567573.

B1: NET1 (parent)
chain: PTPAKRRSSALWSEMLDITMKESL
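Note: lentivirally expressed fusions sorted by FACS into six bins by GFP to DsRed ratio, PSI derived from sequencing read proportions per bin multiplied by bin number.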

Variants of: B1
Assay: protein stability index of a GFP-peptide fusion (GPS, HEK-293T) (PSI 1-6); higher = more stable
Conditions: c terminus: a fixed tail appended
Variant P1M has a protein stability index of 1.72. In the case of P1N, the protein stability index is reported as 2.33. With P1Q the protein stability index was 2.78. With P1R the protein stability index was 1.92. With P1S the protein stability index was 1.45. P1T gave a protein stability index of 1.67. Work on P1V yielded a protein stability index of 2.63. In the case of P1W, the protein stability index is reported as 1.89. For T2A, the protein stability index was 2.93. For T2C, the protein stability index was 1.55. T2D gave a protein stability index of 2.73. With T2E the protein stability index was 3.04. T2F showed a protein stability index of 1.97. T2G showed a protein stability index of 2.06. Work on T2H yielded a protein stability index of 2.85. T2I gave a protein stability index of 2.26. Variant T2K has a protein stability index of 2.15. With T2L the protein stability index was 2.84. Variant T2M has a protein stability index of 2.11. For T2N, the protein stability index was 2.38. With T2Q the protein stability index was 2.33. With T2R the protein stability index was 2.34. In the case of T2S, the protein stability index is reported as 1.62. In the case of T2V, the protein stability index is reported as 2.54. Variant T2W has a protein stability index of 1.5. For T2Y, the protein stability index was 1.86. Work on P3A yielded a protein stability index of 1.88. P3C showed a protein stability index of 1.81. P3D showed a protein stability index of 2.32. In the case of P3E, the protein stability index is reported as 2.25. With P3G the protein stability index was 2.27. For P3H, the protein stability index was 2.05. Work on P3I yielded a protein stability index of 2.49. In the case of P3K, the protein stability index is reported as 2.44. Work on P3L yielded a protein stability index of 2.1. P3M showed a protein stability index of 2.24. With P3N the protein stability index was 2.27. P3Q showed a protein stability index of 2.39. P3R gave a protein stability index of 2.5. In the case of P3S, the protein stability index is reported as 2.17. For P3T, the protein stability index was 2.21. Variant P3W has a protein stability index of 3.24. Variant P3Y has a protein stability index of 1.61. A4C gave a protein stability index of 1.47. For A4D, the protein stability index was 2.46. Variant A4E has a protein stability index of 2.48. Work on A4F yielded a protein stability index of 2.03. For A4G, the protein stability index was 2.3. With A4H the protein stability index was 1.84. Variant A4I has a protein stability index of 1.99. Variant A4K has a protein stability index of 2.63. A4L showed a protein stability index of 1.85. A4M showed a protein stability index of 2.07. A4N gave a protein stability index of 2.07. In the case of A4P, the protein stability index is reported as 2.11. Variant A4Q has a protein stability index of 2.57. Work on A4R yielded a protein stability index of 2.03. Variant A4S has a protein stability index of 1.73. With A4T the protein stability index was 1.95. For A4V, the protein stability index was 2.21. In the case of A4W, the protein stability index is reported as 2.27. A4Y showed a protein stability index of 1.82. K5A showed a protein stability index of 2.34. Work on K5C yielded a protein stability index of 2.38. In the case of K5D, the protein stability index is reported as 2.95. K5E showed a protein stability index of 2.54. For K5G, the protein stability index was 2.59. Work on K5H yielded a protein stability index of 2.55. For K5I, the protein stability index was 2.42. For K5M, the protein stability index was 2.06. In the case of K5N, the protein stability index is reported as 2.52. For K5R, the protein stability index was 2.53. Variant K5S has a protein stability index of 2.19. For K5T, the protein stability index was 2.51. K5V gave a protein stability index of 2.41. Work on K5W yielded a protein stability index of 1.54. In the case of R6A, the protein stability index is reported as 3.48. For R6C, the protein stability index was 1.98. Variant R6D has a protein stability index of 2.79. R6E gave a protein stability index of 3.25. In the case of R6F, the protein stability index is reported as 1.85. R6H showed a protein stability index of 4.19. With R6I the protein stability index was 1.84. R6K showed a protein stability index of 2.1. With R6L the protein stability index was 1.99. In the case of R6M, the protein stability index is reported as 2.56. Work on R6N yielded a protein stability index of 2.51. For R6P, the protein stability index was 2.02. Work on R6S yielded a protein stability index of 2.42. Variant R6T has a protein stability index of 1.76. In the case of R6V, the protein stability index is reported as 1.64. Work on R6W yielded a protein stability index of 1.99. For R7A, the protein stability index was 2.61. For R7D, the protein stability index was 3.36. Work on R7E yielded a protein stability index of 2.8. In the case of R7F, the protein stability index is reported as 2.03. R7G gave a protein stability index of 2.38. R7H gave a protein stability index of 2.34. R7K showed a protein stability index of 2.29. Work on R7M yielded a protein stability index of 2.15. R7N showed a protein stability index of 2.85. Work on R7P yielded a protein stability index of 1.96. In the case of R7Q, the protein stability index is reported as 2.54. R7S showed a protein stability index of 2.71. R7T showed a protein stability index of 2.16. With R7V the protein stability index was 2.46. Variant R7W has a protein stability index of 2.36. Work on R7Y yielded a protein stability index of 2.39. Variant S8D has a protein stability index of 2.65. Work on S8E yielded a protein stability index of 2.63. In the case of S8F, the protein stability index is reported as 1.68. With S8G the protein stability index was 2.53. With S8I the protein stability index was 2.03. S8K gave a protein stability index of 2.96. With S8M the protein stability index was 1.59. With S8P the protein stability index was 2.01. Variant S8Q has a protein stability index of 2.33. Variant S8R has a protein stability index of 1.65. S8T gave a protein stability index of 2.9. S8W gave a protein stability index of 2.25. S8Y showed a protein stability index of 2.28. With S9A the protein stability index was 2.2. Variant S9C has a protein stability index of 1.47. With S9E the protein stability index was 2.4. S9F gave a protein stability index of 2.05. S9G showed a protein stability index of 2.79. Work on S9I yielded a protein stability index of 1.86. With S9K the protein stability index was 1.64. Variant S9N has a protein stability index of 2.21. In the case of S9Q, the protein stability index is reported as 2.34. Work on S9T yielded a protein stability index of 1.57. Work on S9V yielded a protein stability index of 1.88. For A10C, the protein stability index was 2.18. Variant A10D has a protein stability index of 3.58. For A10E, the protein stability index was 2.35. A10F showed a protein stability index of 2.02. For A10G, the protein stability index was 3.48. A10H gave a protein stability index of 2.31. In the case of A10K, the protein stability index is reported as 2.83. A10L showed a protein stability index of 2.55. In the case of A10M, the protein stability index is reported as 2.14. With A10N the protein stability index was 2.67. Variant A10P has a protein stability index of 2. For A10S, the protein stability index was 2.1. For A10T, the protein stability index was 2.52. In the case of A10V, the protein stability index is reported as 1.58. In the case of A10Y, the protein stability index is reported as 1.63. Variant L11C has a protein stability index of 2.2. L11D gave a protein stability index of 4.29. L11E gave a protein stability index of 4.75. L11F gave a protein stability index of 1.98. Work on L11G yielded a protein stability index of 4.11. L11H showed a protein stability index of 3.62. Work on L11K yielded a protein stability index of 1.62. Work on L11M yielded a protein stability index of 2.89. Variant L11N has a protein stability index of 3.5. L11P showed a protein stability index of 2.75. In the case of L11Q, the protein stability index is reported as 2.27. Work on L11S yielded a protein stability index of 1.94. L11T gave a protein stability index of 1.71. Variant L11V has a protein stability index of 3.16. L11Y showed a protein stability index of 2.39. Work on W12A yielded a protein stability index of 4.09. In the case of W12C, the protein stability index is reported as 4.32. With W12D the protein stability index was 5.38. With W12E the protein stability index was 4.65. With W12F the protein stability index was 3.26.
